According to patent publication US8198236B2, “Methods and compositions for the treatment of cancer” (Washington University, priority 2007, dated 2012):

Columns and labels:
MMTV-Wnt1 tumors = experiment: MMTV-Wnt1 tumor transplant growth in nude mice; format: in vivo; conditions: i.p. every other day, first dose 15 mg/kg then 10 mg/kg, three weeks
Method: Recombinant Mesd protein was prepared as described (Li Y, et al. (2005) J Cell Sci 118(22): 5305-5314). Mesd peptide, […] (SEQ ID NO: 14), was manufactured by Abgent (San Diego). Female athymic nude mice (Taconic) (6-8 weeks old) were used for passaging tumors from MMTV-Wnt1 mice (Taconic). MMTV-Wnt1 tumors were serially passaged in mice by implantation in the mammary fat pad as described (DeAlmeida V, et al. (2007) Cancer Res 67, 5371-5379). Therapeutic agents (200 μL Mesd protein, Mesd peptide or PBS) were administrated i.p. with a first dose of 15 mg/kg, followed by 10 mg/kg (9 more doses). Three groups of mice were treated every other day for three weeks and tumor volumes were measured thrice weekly.
The pharmacokinetics and bioavailability of Mesd and Mesd peptide ([…] (SEQ ID NO: 14)) were first investigated (FIG. 23). Cells from MMTV-Wnt1 tumors were injected into the mammary fat pads of female nude mice, and the resultant mice were subsequently randomly grouped when the mean tumor volume reached ca. 200 mm^3. […]
In these experiments, mice bearing established MMTV-Wnt1 tumor transplants were divided into three groups (five animals per group) and were i.p. injected with PBS (vehicle), Mesd, or Mesd peptide every other day. Tumor volume was analyzed using caliper measurement. […]

LRP6 [1] = experiment: 125I-Mesd cell surface binding to LRP6-transduced HT1080 cells; design: species or system human; conditions: HT1080 cells transduced with vector alone
Method: (§1) To examine whether Mesd binds with high affinity to most members of the LDLR family at the cell surface, we performed cell surface ligand binding experiments with cells stably transduced with LRP6 cDNA. Human HT1080 cells, which express undetectable levels of LRP6, were transduced with a viral vector alone (pLNCX2) or with vector containing LRP6 cDNA (Li, Y., Oncogene 23: 9129-9135, 2004) and used for ^125I-Mesd binding (FIG. 1A). ^125I-Mesd (5 nM) reached maximal binding after 2 hours incubation at 4° C. with LRP6-expressing HT1080 cells (FIG. 1A).
(§2) (A) Time course of ^125I-Mesd (5 nM) binding to LRP6-transduced HT1080 cells and the control cells. Assay was carried out for the indicated periods at 4° C. in the absence (total) or presence of 500 nM Mesd (non-specific). (B) Saturation binding of ^125I-Mesd to LRP6-transduced HT1080 cells and the control cells. Assay was carried out at indicated concentrations for 3 hours at 4° C. in the absence (total) or presence (non-specific) of 500 nM Mesd. (C) Scatchard plots of data in B. All values are the average of triple determinations with the s.d. indicated by error bars.
(§3) Cells (2×10^5) were seeded into 12-well dishes 1 day prior to assay. Ligand-binding buffer (minimal Eagle's medium containing 0.6% BSA with a different concentration of radioligand, 0.6 ml/well) was added to cell monolayers, in the absence or the presence of 500 nM unlabeled RAP or 500 nM unlabeled Mesd, followed with incubation for 0-4 hours at 4° C. Thereafter, overlying buffer containing unbound ligand was removed, and cell monolayers were washed and lysed in low-SDS lysis buffer (62.5 mM Tris-HCl pH 6.8, 0.2% SDS, 10% v/glycerol) and counted.
(§4) To analyze the Mesd sequences that are required for Mesd to bind to mature LRP6 at the cell surface with high affinity, sequences were compared between mouse Mesd and its homologs from different species. […] We thus generated two truncated Mesd mutants lacking either the N-terminal region, MESD (12-195), or both the N-terminal and C-terminal regions, Mesd (12-155) (FIG. 3A). The ability of these mutants to bind to cell surface LRP6 was then assessed.
(§5) In this example, a truncated Mesd mutant containing the last 45 amino acids of C-terminal region was generated (FIG. 3A) and its binding affinity for LRP6 was then analyzed. […] (A) Binding analyses of ^125I-Mesd and its mutant Mesd (150-195) (5 nM) to LRP6-transduced HT1080 cells and control cells. (B) Binding analyses of ^125I-Mesd and its mutant Mesd (150-195) (5 nM) to LRP6-transduced HT1080 cells. Assays were carried out for 3 hours at 4° C. in the absence or presence of 500 nM Mesd or its mutant. Values are the means of triple determinations with the s.d. indicated by error bars.
(§6) LRP6-mediated Mesd uptake and degradation was investigated in the experiments illustrated in FIG. 7. (A) LRP6-mediated ^125I-Mesd (5 nM) degradation in LRP6-transduced HT1080 cells and control cells was carried out for 4 hours at 37° C. in the absence or presence of 500 nM Mesd. (B) ^125I-Mesd (5 nM) binding to LRP6-transduced HT1080 cells and the control cells was carried out for 4 hours at 4° C. in the absence or presence of 500 nM Mesd. Values are the means of triple determinations with the s.d. indicated by error bars.

LRP6 [2] = target: T1, LRP6 (Homo sapiens, UniProt O75581); experiment: as above
T1 construct: expressed in transfected cells; host or cells: human HT1080 cells, retroviral vector pLNCX2
Method: as §1, §2, §3, §4, §5, §6

T1 sequence (O75581 20-1613): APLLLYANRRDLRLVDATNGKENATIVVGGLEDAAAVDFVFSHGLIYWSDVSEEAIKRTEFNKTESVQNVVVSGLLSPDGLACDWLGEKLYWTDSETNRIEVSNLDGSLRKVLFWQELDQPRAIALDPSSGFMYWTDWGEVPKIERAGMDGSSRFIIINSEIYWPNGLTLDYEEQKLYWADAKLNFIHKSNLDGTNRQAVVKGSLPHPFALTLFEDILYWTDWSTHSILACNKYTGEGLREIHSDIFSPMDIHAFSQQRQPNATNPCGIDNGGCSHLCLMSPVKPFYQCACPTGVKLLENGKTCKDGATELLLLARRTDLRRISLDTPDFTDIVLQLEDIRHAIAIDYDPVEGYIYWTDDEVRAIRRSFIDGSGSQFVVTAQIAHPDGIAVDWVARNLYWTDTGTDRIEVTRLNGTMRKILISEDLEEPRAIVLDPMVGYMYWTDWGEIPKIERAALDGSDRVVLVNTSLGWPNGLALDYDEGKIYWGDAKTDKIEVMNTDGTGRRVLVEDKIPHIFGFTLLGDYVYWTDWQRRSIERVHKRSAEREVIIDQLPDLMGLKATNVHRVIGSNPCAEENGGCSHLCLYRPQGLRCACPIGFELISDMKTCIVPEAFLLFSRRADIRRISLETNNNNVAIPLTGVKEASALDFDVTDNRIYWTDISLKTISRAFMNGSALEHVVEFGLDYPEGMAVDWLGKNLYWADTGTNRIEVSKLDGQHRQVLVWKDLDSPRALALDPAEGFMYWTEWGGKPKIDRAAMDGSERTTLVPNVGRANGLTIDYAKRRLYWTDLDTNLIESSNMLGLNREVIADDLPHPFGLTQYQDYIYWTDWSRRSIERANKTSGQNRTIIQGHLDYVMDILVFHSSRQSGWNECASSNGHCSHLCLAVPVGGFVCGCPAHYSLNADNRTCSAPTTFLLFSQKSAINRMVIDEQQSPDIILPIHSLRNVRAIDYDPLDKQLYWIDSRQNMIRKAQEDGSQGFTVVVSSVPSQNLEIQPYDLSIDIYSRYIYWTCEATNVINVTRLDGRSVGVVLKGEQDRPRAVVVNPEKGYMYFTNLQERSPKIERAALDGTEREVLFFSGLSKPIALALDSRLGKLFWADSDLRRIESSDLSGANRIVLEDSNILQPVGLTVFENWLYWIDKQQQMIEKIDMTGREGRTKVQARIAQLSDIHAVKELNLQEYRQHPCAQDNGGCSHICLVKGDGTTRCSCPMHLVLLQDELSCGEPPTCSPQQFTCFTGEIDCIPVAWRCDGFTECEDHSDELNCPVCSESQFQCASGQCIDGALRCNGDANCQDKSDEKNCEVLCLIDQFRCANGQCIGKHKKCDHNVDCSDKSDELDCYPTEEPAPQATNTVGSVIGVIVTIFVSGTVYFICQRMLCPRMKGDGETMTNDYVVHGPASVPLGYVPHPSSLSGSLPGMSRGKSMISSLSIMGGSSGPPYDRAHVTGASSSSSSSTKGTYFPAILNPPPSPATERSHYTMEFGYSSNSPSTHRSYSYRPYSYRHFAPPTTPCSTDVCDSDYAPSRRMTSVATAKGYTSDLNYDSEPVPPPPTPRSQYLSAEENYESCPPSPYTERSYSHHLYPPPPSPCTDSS

B1: Mesd: Recombinant full-length mouse Mesd expressed in E. coli, N-terminal polyhistidine tail, lacking the signal peptide (protein)
chain: ADTPGEATPPPRKKKDIRDYNDADMARLLEQWEKDDDIEEGDLPEHKRPSAPIDFSKLDPGKPESILKMTKKGKTLMMFVTVSGNPTEKETEEITSLWQGSLFNANYDVQRFIVGSDRAIFMLRDGSYAWEIKDFLVSQDRCAEVTLEGQMYPGKGGGSKEKNKTKPEKAKKKEGDRKPRASKEDNRAGSRREDL
modifications: left off: small tags and cut ends
notes: Recombinant full-length mouse Mesd expressed in E. coli, N-terminal polyhistidine tail, lacking the signal peptide
MMTV-Wnt1 tumors
  Tumor growth (tumor volume, caliper): significantly inhibit tumor growth
LRP6 [1]
  125I-Mesd binding to control cells (pLNCX2): No significant
LRP6 [2]; 5 nM, 4 hours at 4° C.
  125I-Mesd binding: 1320 fmoles/mg cell protein
LRP6 [2]; LRP6-transduced HT1080 cells, 3 hours at 4° C.
  Concentration at which Mesd specific binding saturates: > 6.4 nM
